Measurements reported in PMC10589233.

Target: human SLC15A4 of the SLC15A4/ALFA_Nanobody/C5 complex (cryo-EM sample) (human) (UniProt Q8N697)
Assay: cryo-EM structure; purified SLC15A4/ALFA_Nanobody/C5 complex, 10 µM C5 in all buffers and 100 µM added to peak SEC fractions, 15 mg/ml; 2D averages showed dimeric and monomeric forms; the dimer resolved at 2.50 Å

human SLC15A4 of the SLC15A4/ALFA_Nanobody/C5 complex (cryo-EM sample) (from UniProt Q8N697 1-577) (natural protein)
stoichiometry N: 2
